# Test results as given in US20060166284A1 (Bayer, published 2006).
# Several values for one entry are separate records, joined by “and”; a condition that tells them apart may be missing. Equal entries are not always repeated.
# T1: human factor VIIa (human, UniProt P08709 61-466)
# T1 construct: mature; also called FVIIa
# T1 sequence (looked up): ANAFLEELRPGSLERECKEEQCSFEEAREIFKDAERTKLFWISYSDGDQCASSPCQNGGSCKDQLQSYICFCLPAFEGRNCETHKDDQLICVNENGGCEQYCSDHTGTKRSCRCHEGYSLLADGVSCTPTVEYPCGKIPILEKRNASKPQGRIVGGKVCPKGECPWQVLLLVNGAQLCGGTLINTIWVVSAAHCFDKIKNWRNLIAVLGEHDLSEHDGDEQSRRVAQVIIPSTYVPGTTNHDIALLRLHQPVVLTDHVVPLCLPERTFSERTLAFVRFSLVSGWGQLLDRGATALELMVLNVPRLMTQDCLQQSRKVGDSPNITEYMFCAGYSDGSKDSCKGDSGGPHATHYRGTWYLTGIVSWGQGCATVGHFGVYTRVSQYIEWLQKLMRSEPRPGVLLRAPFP
# B1: recombinant human soluble tissue factor (receptor, UniProt P13726 33-251, looked up)
# chain: SGTTNTVAAYNLTWKSTNFKTILEWEPKPVNQVYTVQISTKSGDWKSKCFYTTDTECDLTDEIVKDVKQTYLARVFSYPAGNVESTGSAGEPLYENSPEFTPYLETNLGQPTIQSFEQVGTKVNVTVEDERTLVRRNNTFLSLRDVFGKDLIYTLYYWKSSSSGKKTAKTNTNEFLIDVDKGENYCFSVQAVIPSRTVNRKSTDSPVECMGQEKGEFRE
# notes: extracellular domain; also called sTF; soluble TF
# B2: single chain anti-TF antibody scFv(TF)3e10 (scFv)
# scFv: EMAQVNLRESGGTLVQPGGSLRLSCAASGFSFTDAWMSWVRQAPGKELEWVSSISGSGGSTYYAGSVKGRFTISRDNSKNTLYLQMNSLRAEDTAVYYCARVLSLTDYYWYGMDVWGQGTLVTVSAGGGGSGAPNFMLTQPHSVSASPGKTVTISCTRSSGSVASYYVQWYQQRPGSSPTTVIYEDNHRPSGVPDRFSGSIDTSSNSASLTISGLKTEDEADYYCQSYDSNNLVVFGGGTKLTVLGAAAGAPVPYPDPLEPRAA
# notes: Monomer and dimer forms were separated by gel filtration
# Experiments:
# [1] = biological target: FVIIa/TF complex on a phospholipid surface (recombinant human TF vesicles with human FVIIa) (UniProt P13726)
# human factor VIIa [2] = biological target: T1, human factor VIIa; test: sTF/FVIIa peptide hydrolysis assay (S2266), 2 nM FVIIa, sTF titrated, apparent KD from a 4-parameter fit; no antibody
# [3] = biological target: FVIIa/TF complex on a phospholipid surface (recombinant human TF vesicles with human FVIIa) (human, UniProt P13726 33-295; P08709 61-466); test: cell-based or functional assay
# [4] = biological target: B1; test: BIAcore; BIAcore; free sTF, no FVIIa
# [5] = biological target: T2, sTF/FVIIa complex (soluble tissue factor with active human FVIIa) (human, UniProt P13726 33-251; P08709 61-466); test: sTF/FVIIa peptide hydrolysis assay (3 nM sTF, 2 nM FVIIa); scFv titrated, 4-parameter fit of the rise in rate; bacterially expressed scFv; peptide hydrolysis assay with 3 nM sTF and 2 nM FVIIa present
# T2 construct: extracellular domain;mature; The complex forms in the sTF/FVIIa peptide hydrolysis assay (3 nM sTF, 2 nM FVIIa); also called FVIIa/TF complex; VIIa/TF complex
# [6] = biological target: B1; test: microcalorimetry (ITC); scFv expressed in mammalian (CHO) cells; free sTF; microcalorimetry; free sTF; mammalian cell expressed scFv
# Method: (§1) This assay is performed using a MicroCal VP-ITC instrument. […] Data analysis is performed using MicroCal Origin software. The data is fit to a single binding site.
# [7] = biological target: T3, FVIIa/TF complex preformed from sTF and FVIIai (human, UniProt P13726 33-251; P08709 61-466, limits assumed, active site inactivated by a chloromethylketone peptide, PPACK (FVIIai)); test: microcalorimetry (ITC); scFv expressed in mammalian (CHO) cells; complex of sTF with FVIIai; microcalorimetry; TF/FVIIa complex; mammalian cell expressed scFv
# T3 construct: extracellular domain;mature; Complex used in the microcalorimetry assay; It was made with a 2.3 fold molar excess of FVIIai over sTF; also called TF/FVIIa complex; sTF/FVIIa complex
# Method: as §1
# human factor VIIa [8] = biological target: T1, human factor VIIa; test: sTF/FVIIa peptide hydrolysis assay (S2266), 2 nM FVIIa, no sTF
# [9] = biological target: T3, FVIIa/TF complex preformed from sTF and …; test: microcalorimetry (isothermal titration calorimetry), model OneSites, CHO-expressed scFv(TF)3e10 titrated into the preformed sTF/FVIIai complex
# Method: as §1
# [10] = biological target: B1; test: microcalorimetry (isothermal titration calorimetry), model OneSites, CHO-expressed scFv(TF)3e10 titrated into sTF; no unit printed in the fit box
# Method: as §1
# [11] = biological target: T3, FVIIa/TF complex preformed from sTF and …; test: microcalorimetry (isothermal titration calorimetry), model OneSites, CHO-expressed scFv(TF)3e10 titrated into the preformed sTF/FVIIai complex; no unit printed in the fit box
# Method: as §1
# [12] = biological target: T3, FVIIa/TF complex preformed from sTF and …; test: microcalorimetry (ITC); scFv expressed in mammalian (CHO) cells
# Method: as §1
molecule,measurement,setting,value
human factor X,Km of FX for the VIIa/TF complex (FX activation assay),[1],between 0.061 and 0.099 µM
B1,Kd,human factor VIIa [2],13 nM
B2,IC50 for inhibition in the FX activation assay,[3],0.44 nM
same,Kd,[4],470 nM
same,Kd,[5],65 nM
same,Kd,[6],600 nM
same,Kd,[7],33 nM
same,binding result,human factor VIIa [8],no binding (tested: 800 nM)
same,N,[9],1.14
same,ΔH,[10],-21800
same,ΔH,[11],-28600
same,ΔS,[11],-60
same,fold higher affinity for the TF/FVIIa complex as compared to free sTF,[12],~20 fold
